Article PMC9780825 (2022)
No end group written: not given here.

Tests used:
[1] = target: T1, Kv1.3 (mKate2-tagged, K-ΔKv1.3) 53-C-terminus (deletion M1-D52) (Homo sapiens, UniProt P22001); assay: confocal fluorescence binding on HEK293 cells
[2] = target: Kv1.3 (mKate2-tagged, K-Kv1.3) (Homo sapiens, UniProt P22001); assay: confocal fluorescence binding on HEK293 cells
[3] = target: T1, Kv1.3 (mKate2-tagged, K-ΔKv1.3) …; assay: fluorescent competitive binding assay (confocal, HEK293 cells)

T1 sequence (P22001 53-575, stated change not applied): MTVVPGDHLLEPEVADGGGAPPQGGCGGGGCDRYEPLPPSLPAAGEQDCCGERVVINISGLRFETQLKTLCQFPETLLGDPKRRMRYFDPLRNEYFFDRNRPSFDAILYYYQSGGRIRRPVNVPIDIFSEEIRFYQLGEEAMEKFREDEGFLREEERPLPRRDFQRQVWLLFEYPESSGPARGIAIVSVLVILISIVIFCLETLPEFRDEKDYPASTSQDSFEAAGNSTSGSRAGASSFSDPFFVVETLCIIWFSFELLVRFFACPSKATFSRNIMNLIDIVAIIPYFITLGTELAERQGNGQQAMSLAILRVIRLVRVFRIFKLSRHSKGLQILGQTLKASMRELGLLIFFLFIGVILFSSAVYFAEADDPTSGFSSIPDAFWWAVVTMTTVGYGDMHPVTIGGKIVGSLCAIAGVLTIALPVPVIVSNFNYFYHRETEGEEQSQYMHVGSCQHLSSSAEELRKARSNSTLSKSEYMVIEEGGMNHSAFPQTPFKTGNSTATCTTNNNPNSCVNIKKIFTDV
Sequence of Kv1.3 (mKate2-tagged, K-Kv1.3) (P22001 whole entry): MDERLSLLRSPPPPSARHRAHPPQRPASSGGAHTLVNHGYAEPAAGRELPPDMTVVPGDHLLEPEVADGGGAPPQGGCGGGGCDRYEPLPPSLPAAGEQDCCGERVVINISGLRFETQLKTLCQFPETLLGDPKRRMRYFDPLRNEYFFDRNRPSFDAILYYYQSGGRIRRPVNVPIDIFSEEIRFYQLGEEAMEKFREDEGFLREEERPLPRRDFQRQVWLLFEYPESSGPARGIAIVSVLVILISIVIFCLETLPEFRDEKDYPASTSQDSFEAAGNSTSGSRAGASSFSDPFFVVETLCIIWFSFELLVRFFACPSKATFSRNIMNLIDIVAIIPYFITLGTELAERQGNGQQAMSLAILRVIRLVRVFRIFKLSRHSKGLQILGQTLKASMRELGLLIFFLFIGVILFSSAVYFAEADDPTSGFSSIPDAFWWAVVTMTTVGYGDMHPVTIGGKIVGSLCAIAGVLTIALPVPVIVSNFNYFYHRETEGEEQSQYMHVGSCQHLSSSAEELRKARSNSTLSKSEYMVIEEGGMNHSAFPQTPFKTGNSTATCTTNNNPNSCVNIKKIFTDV

Binder | Kd [1] [nM] | Kd [2] [nM] | Ki [3] [nM]
Atto488-TVIDVKCTSPKQCLPPCKAQFGIRAGAKCMNGKCKCYPH (ends and bridges not checked) [Hongotoxin 1 (Atto488-labeled, A-HgTx)] | 0.48 | 0.3 | 
TVIDVKCTSPKQCLPPCKAQFGIRAGAKCMNGKCKCYPH (ends and bridges not checked; cysteine pairing not given here) [Hongotoxin 1 (HgTx1)] |  |  | 0.2
GVEINVKCSGSPQCLKPCKDAGMRFGKCMNRKCHCTPK (ends and bridges not checked; cysteine pairing not given here) [Kaliotoxin 1 (KTx1)] |  |  | 4
GVPINVSCTGSPQCIKPCKDAGMRFGKCMNRKCHCTPK (ends and bridges not checked; cysteine pairing not given here) [Agitoxin 2 (AgTx2)] |  |  | 1.1
